Reference: patent publication US20240190983A1 (JULIUS MAXIMILIANS UNIVERSIT T W RZBURG, published 2024)

T1: Human TNFR2 (human, UniProt P20333 23-461)
T1 construct: On cells: HeLa-TNFR2, HT1080-Bcl2-TNFR2, transiently transfected HEK293; endogenous on Kym-1 cells; also called huTNFR2; TNFRSF1B
T1 sequence: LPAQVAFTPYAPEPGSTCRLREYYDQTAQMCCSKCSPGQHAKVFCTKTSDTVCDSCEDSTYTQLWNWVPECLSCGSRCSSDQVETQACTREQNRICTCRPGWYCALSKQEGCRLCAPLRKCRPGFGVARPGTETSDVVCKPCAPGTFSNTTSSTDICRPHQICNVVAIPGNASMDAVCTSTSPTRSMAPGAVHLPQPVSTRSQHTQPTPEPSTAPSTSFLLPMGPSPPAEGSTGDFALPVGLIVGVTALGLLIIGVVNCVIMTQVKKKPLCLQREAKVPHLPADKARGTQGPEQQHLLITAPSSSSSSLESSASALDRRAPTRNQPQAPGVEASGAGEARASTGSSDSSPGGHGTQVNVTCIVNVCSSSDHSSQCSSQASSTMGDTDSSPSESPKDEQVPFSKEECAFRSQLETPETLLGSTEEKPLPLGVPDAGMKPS

T2: Extracellular domain of TNFR1 with a GPI anchor domain (UniProt P19438 30-211)
T2 construct: extracellular domain; not shown: GPI anchor domain
T2 sequence (looked up): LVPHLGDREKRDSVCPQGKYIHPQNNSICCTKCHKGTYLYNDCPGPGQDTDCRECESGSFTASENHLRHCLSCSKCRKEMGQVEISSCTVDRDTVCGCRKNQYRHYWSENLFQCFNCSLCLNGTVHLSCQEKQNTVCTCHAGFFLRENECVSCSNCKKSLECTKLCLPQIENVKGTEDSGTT

T3: Murine TNFR2 (mouse, UniProt P25119 23-474)
T3 construct: Expressed on transiently transfected HEK293 cells; also called mouse TNFR2; TNFR2(mu)
T3 sequence: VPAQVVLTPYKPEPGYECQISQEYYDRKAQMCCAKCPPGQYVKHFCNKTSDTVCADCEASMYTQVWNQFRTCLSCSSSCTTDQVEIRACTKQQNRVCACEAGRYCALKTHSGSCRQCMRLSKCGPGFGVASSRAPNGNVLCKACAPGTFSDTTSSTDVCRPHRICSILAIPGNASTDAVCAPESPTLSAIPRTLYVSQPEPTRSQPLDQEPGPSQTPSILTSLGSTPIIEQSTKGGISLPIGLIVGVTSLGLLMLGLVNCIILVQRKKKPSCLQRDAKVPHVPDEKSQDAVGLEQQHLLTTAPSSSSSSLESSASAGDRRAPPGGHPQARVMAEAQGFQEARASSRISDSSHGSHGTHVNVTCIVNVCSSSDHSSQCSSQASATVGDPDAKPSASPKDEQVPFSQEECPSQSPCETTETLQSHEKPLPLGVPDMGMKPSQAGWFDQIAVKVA

T4: Cynomolgus TNFR2 (Macaca fascicularis (cynomolgus monkey), UniProt P20333 26-461 (human entry))
T4 construct: Expressed on transiently transfected HEK293 cells; also called TNFR2-cyno; monkey TNFR2
T4 chain: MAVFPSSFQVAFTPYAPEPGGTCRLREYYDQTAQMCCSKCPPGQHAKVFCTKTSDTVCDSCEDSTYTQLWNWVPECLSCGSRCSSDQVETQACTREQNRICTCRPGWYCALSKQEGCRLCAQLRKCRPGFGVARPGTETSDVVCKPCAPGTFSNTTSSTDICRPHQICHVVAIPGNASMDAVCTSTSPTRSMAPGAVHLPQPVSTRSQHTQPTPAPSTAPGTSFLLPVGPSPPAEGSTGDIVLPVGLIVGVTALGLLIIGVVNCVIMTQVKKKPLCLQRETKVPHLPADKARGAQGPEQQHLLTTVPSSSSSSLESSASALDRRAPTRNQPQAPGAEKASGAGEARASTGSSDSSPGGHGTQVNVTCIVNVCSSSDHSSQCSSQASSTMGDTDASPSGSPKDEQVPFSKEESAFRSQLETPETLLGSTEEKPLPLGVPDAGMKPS

B1: C9-IgG1(N297A)-LC:GpL (antibody)
light: EVKLVPRQLDYKDDDDKELQIVLTQSPAIMSASPGEKVTITCSASSSVSYMHWFQQKPGTSPKLWIYSTSNLASGVPARFSGSGSGTSYSLTISRMEAEDAATYYCQQRSSYPPTFGGGTKLEIKGSEIKRTVAAPSVFIFPPSDEQLKSGTASVVCLLNNFYPREAKVQWKVDNALQSGNSQESVTEQDSKDSTYSLSSTLTLSKADYEKHKVYACEVTHQGLSSPVTKSFNRGECLEKPTENNEDFNIVAVASNFATTDLDADRGKLPGKKLPLEVLKEMEANARKAGCTRGCLICLSHIKCTPKMKKFIPGRCHTYEGDKESAQGGIGEAIVDIPEIPGFKDLEPMEQFIAQVDLCVDCTTGCLKGLANVQCSDLLKKWLPQRCATFASKIQGQVDKIKGAGGD
heavy: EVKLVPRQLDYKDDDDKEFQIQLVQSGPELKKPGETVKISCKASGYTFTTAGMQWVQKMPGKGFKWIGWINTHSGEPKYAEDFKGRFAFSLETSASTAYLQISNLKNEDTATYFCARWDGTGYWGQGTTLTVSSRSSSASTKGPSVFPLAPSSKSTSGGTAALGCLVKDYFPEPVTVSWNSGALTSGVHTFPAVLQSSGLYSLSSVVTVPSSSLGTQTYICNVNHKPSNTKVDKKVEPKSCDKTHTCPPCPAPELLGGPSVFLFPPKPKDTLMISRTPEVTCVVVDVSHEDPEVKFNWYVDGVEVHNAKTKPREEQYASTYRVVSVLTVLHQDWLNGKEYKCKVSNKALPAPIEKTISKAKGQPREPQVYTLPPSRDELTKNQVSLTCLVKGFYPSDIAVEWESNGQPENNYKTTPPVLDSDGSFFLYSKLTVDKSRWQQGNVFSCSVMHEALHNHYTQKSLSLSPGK
notes: copies: 2 + 2
B2: C27-IgG1(N297A)-LC:GpL (antibody)
light: EVKLVPRQLDYKDDDDKELNIVMTQSPKSLSMSVGERVTLNCKASENVKTYVSWYQQKPEQSPKLLIYGASNRYTGVPDRFTGSGSATDFTLTISSVQAEDLADYHCGQSYSYPFTFGAGTKLERKGSEIKRTVAAPSVFIFPPSDEQLKSGTASVVCLLNNFYPREAKVQWKVDNALQSGNSQESVTEQDSKDSTYSLSSTLTLSKADYEKHKVYACEVTHQGLSSPVTKSFNRGECLEKPTENNEDFNIVAVASNFATTDLDADRGKLPGKKLPLEVLKEMEANARKAGCTRGCLICLSHIKCTPKMKKFIPGRCHTYEGDKESAQGGIGEAIVDIPEIPGFKDLEPMEQFIAQVDLCVDCTTGCLKGLANVQCSDLLKKWLPQRCATFASKIQGQVDKIKGAGGD
heavy: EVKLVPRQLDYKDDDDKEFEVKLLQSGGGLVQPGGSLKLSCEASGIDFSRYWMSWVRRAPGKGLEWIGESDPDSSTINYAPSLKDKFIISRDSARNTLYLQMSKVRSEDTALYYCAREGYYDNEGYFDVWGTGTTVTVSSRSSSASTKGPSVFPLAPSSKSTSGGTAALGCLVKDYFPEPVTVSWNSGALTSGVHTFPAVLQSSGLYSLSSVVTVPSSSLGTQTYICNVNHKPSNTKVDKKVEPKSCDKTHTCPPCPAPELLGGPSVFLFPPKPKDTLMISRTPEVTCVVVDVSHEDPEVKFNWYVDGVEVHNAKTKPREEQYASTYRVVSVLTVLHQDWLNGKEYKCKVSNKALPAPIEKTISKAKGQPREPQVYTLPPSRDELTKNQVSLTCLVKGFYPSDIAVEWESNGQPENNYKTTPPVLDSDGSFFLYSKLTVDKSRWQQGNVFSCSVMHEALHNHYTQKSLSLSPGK
notes: copies: 2 + 2

Assays:
Human TNFR2 [1] = molecular target: T1, Human TNFR2; experiment: binding of the GpL tagged protein to HEK293 cells transiently transfected with TNFR2, 1 h 37 °C; empty-vector cells as non-specific binding
Description: (§1) HEK293 cells were transiently transfected with: (i) a TNFR2 expression plasmid; (ii) an expression plasmid encoding the extracellular domain of TNFR1 with a GPI anchor domain; or (iii) empty vector (ev). Next day, the indicated GpL tagged binding molecules were added at the indicated concentration to the cells. After incubation for 1 hour at 37° C., followed by two washes with PBS, the remaining cell bound GpL activity was determined.
(§2) An experiment was performed to illustrate the ability of the binding molecules provided to bind TNFR2, but not TNFR1. HEK293 cells were transiently transfected with: (i) a TNFR2 expression plasmid; (ii) an expression plasmid encoding the extracellular domain of TNFR1 with a GPI anchor domain; or (iii) empty vector (ev). […] The proteins indicated in FIG. 27 were added at the indicated concentration to the HEK293 cells. After incubation for 1 hour at 37° C., followed by two washes with PBS, the remaining cell bound GpL activity was determined.

[2] = molecular target: T2, Extracellular domain of TNFR1 with a …; experiment: binding of the GpL tagged protein to HEK293 cells transiently transfected with the TNFR1 extracellular domain with GPI anchor; empty-vector cells as non-specific binding
Description: as §1, §2

Human TNFR2 [3] = molecular target: T1, Human TNFR2; experiment: equilibrium binding of the GpL fusion protein to HeLa-TNFR2 cells, 37 °C; unspecific binding on HeLa cells subtracted; cell-bound luciferase
Description: FIG. 11—Binding properties of TNFR2-specific antibodies. (A) Equilibrium binding of the indicated anti-TNFR2 antibody GpL fusion proteins to cell expressed human TNFR2 at 37° C. (B) HeLa-TNFR2 cells were pretreated with the indicated amounts of anti-TNFR2 antibodies or remained untreated. […] Binding of the various constructs to untransfected HeLa cells was analyzed to obtain unspecific binding values.
Affinity of TNFR2-specific antibodies and antibody variants were also evaluated with HeLa cells and HeLa cells stably expressing human TNFR2. HeLa and HeLa-TNFR2 cells were seeded out in 24-well plates. Next day, the cells were challenged with the indicated concentrations of GpL-labelled TNFR2 antibodies for 1 hour at 37° C. To eliminate the unbound antibodies, the cells were washed 10 times with ice-cold PBS. The cells were then scratched and collected in 50 μl of medium (RPMI, 0.5% FCS) and transferred to black 96-well plates for measurement as mentioned above. The specific binding of different TNFR2-specific antibodies/antibody variants was calculated by subtracting the unspecific binding (values obtained from HeLa cells) from total binding (obtained from HeLa-TNFR2). The resulting values were fitted using the non-linear regression analysis option of GraphPad Prism 5.

Murine TNFR2 [4] = molecular target: T3, Murine TNFR2; experiment: equilibrium binding of the GpL fusion protein (label C9-IgG1-LC:GpL) to HEK293 cells transiently transfected with murine TNFR2; empty-vector cells as non-specific binding
Description: (§3) FIG. 14—Binding of TNFR2-specific antibodies to human, murine and cynomolgus TNFR2. HEK293 cells were transiently transfected with human, murine and cynomologus TNFR2 or empty vector. Equilibrium binding of the indicated anti-TNFR2 antibody GpL fusion proteins were then determined at 37° C. Binding to empty vector transfected cells was determined to obtain unspecific binding values.
(§4) Affinity (KD-values) of TNFR2-targeting antibodies to human, cynomolgus monkey, and murine TNFR2 was evaluated by cellular equilibrium binding studies. Therefore, HEK293T cells were transiently transfected with human, cynomolgus or mouse TNFR2 encoding expression plasmids or an empty vector control (EV) using the PEI method. […] Cell associated luciferase activity (RLU; relative light units) was detected with LUmo luminometer (anthos Mikrosysteme GmbH, Friesoythe, Germany) directly after adding 1.5 μM of the substrate coelenterazin (Carl Roth, Karlsruhe, Germany).
(§5) The binding properties of anti-TNFR2 antibodies from different clones were assessed. […] Equilibrium binding of the indicated anti-TNFR2 antibody GpL fusion proteins was then determined at 37° C. Binding to empty vector transfected cells was determined to obtain unspecific binding values.

Cynomolgus TNFR2 = molecular target: T4, Cynomolgus TNFR2; experiment: equilibrium binding of the GpL fusion protein to HEK293 cells transiently transfected with cynomolgus TNFR2, 37 °C; empty-vector cells as non-specific binding
Description: as §3, §4, §5

Murine TNFR2 [5] = molecular target: T3, Murine TNFR2; experiment: equilibrium binding of the GpL fusion protein (label C27-IgG1-LC:GpL) to HEK293 cells transiently transfected with murine TNFR2; empty-vector cells as non-specific binding
Description: as §3, §4, §5

Row | Binder | Kd (Human TNFR2 [1]) [µg/mL] | binding result [2] | Bmax (Human TNFR2 [3]) [kRLU] | Kd (Human TNFR2 [3]) [µg/mL] | binding result (Murine TNFR2 [4]) | Kd (Cynomolgus TNFR2) [µg/mL] | binding result (Murine TNFR2 [5])
1 | B1 | 0.13 | no binding (tested: 750 ng/ml) | 1000 | 0.22 | no binding (tested: 1500 ng/ml) | 1.1 | –
2 | B2 | – | no binding (tested: 750 ng/ml) | – | – | – | – | no binding (tested: 1000 ng/ml)
